# Source: US20260166131A1, “METHOD FOR PROMOTING PATHOLOGICAL TDP-43 PROTEIN DEGRADATION, AND DRUG” (TALENGEN INTERNATIONAL LIMITED, priority 2022, published 2026)
# Values joined by “and” are separate entries in the source; they are usually repeats but may differ in a detail not shown here. Equal entries are not always repeated. “Also recorded” adds a separate entry of the source.
# B1: plasminogen: human plasminogen purified from human donor plasma, in which human Lys-plasminogen and Glu-plasminogen are >98% (protein)
# chain: KVYLSECKTGNGKNYRGTMSKTKNGITCQKWSSTSPHRPRFSPATHPSEGLEENYCRNPDNDPQGPWCYTTDPEKRYDYCDILECEEECMHCSGENYDGKISKTMSGLECQAWDSQSPHAHGYIPSKFPNKNLKKNYCRNPDRELRPWCFTTDPNKRWELCDIPRCTTPPPSSGPTYQCLKGTGENYRGNVAVTVSGHTCQHWSAQTPHTHNRTPENFPCKNLDENYCRNPDGKRAPWCHTTNSQVRWEYCKIPSCDSSPVSTEQLAPTAPPELTPVVQDCYHGDGQSYRGTSSTTTTGKKCQSWSSMTPHRHQKTPENYPNAGLTMNYCRNPDADKGPWCFTTDPSVRWEYCNLKKCSGTEASVVAPPPVVLLPDVETPSEEDCMFGNGKGYRGKRATTVTGTPCQDWAAQEPHRHSIFTPETNPRAGLEKNYCRNPDGDVGGPWCYTTNPRKLYDYCDVPQCAAPSFDCGKPQVEPKKCPGRVVGGCVAHPHSWPWQVSLRTRFGMHFCGGTLISPEWVLTAAHCLEKSPRPSSYKVILGAHQEVNLEPHVQEIEVSRLFLEPTRKDIALLKLSSPAVITDKVIPACLPSPNYVVADRTECFITGWGETQGTFGAGLLKEAQLPVIENKVCNRYEFLNGRVQSTELCAGHLAGGTDSCQGDSGGPLVCFEKDKYILQGVTSWGLGCARPNKPGVYVRVSRFVTWIEGVMRNN
# Assays:
# [1] = Plasma plasminogen level after tail vein injection in FAD (Alzheimer's model) mice (ELISA); assay type: in vivo, mouse
# Protocol: Twenty-seven 16-week-age B6SJL-Tg (APPSwFlLon, PSEN1*M146L* L286V) 6799Vas Mmjax (Stock Number: 034840) (FAD mice for short) (breeding mice were purchased from Jackson Laboratory, USA) were randomly divided into three groups: three mice in vehicle control group, 12 mice in 6 mg/kg plasminogen group, and 12 mice in 50 mg/kg plasminogen group. The mice in the vehicle control group were injected with vehicle at 5 ml/kg by tail vein, the mice in the 6 mg/kg plasminogen group were injected with plasminogen (1.2 mg/ml) at 6 mg/kg body weight by tail vein, and the mice in the 50 mg/kg plasminogen group were injected with plasminogen (10 mg/ml) at 6 mg/kg body weight by tail vein. The mice in the vehicle control group were killed 2 hours after administration, and their blood was collected. Three mice in the 6 mg/kg plasminogen group and three mice in the 50 mg/kg plasminogen group were killed 2, 6, 12 and 24 hours after administration, and their blood was collected. After the blood was centrifuged (3500 rpm, 10 min, 4° C.), the supernatant was taken to detect according to the instructions of Human Plasminogen ELISA Kit (manufacturer: AssayMax, catalog number: EP1200-1). The concentration of each sample was calibrated by using human plasminogen working standard as the internal standard. The calibrated concentration was divided by the total protein concentration to calculate the amount of plasminogen per unit of total protein in each sample and perform statistical analysis.
# [2] = test system: NSC34 cells; test: Human plasminogen level in cytoplasm and nucleus of okadaic acid-treated NSC34 cells (ELISA); conditions: plasminogen 0.5 mg/mL 24 hours, vs vehicle group
# Protocol: The cells were placed in a carbon dioxide incubator for culture at 37.0° C. and 5% CO2. […] After adding plasminogen for 24 hours, the cells were harvested. […] The supernatant is the extracted cytoplasmic protein, and the supernatant is immediately sucked up into a pre-cooled sample tube for later use. The precipitate is the cell nucleus, and the remaining supernatant was completely aspirated (to avoid contamination by cytoplasmic proteins), then adding 50-100 μL of nuclear protein extraction reagent. The precipitate is completely dispersed by pipette blow or high-speed vortex for 15 seconds (can be extended appropriately), then ice-bathing for 10 minutes, vortexing vigorously at maximum speed for 10 seconds and centrifuging at 12,000-16,000 g for 10 minutes at 4° C. The supernatant was immediately sucked up by pipette into a pre-cooled sample tube; this is the extracted nuclear protein.
# [3] = target: TDP-43 (Mus musculus, UniProt Q921F2); test: Immunofluorescence co-localization staining of plasminogen and TDP-43 in gluteal muscle tissue of SOD1-G93A mice; assay type: in vivo; design: from tissue; host or cells: mouse spinal cord, gluteal muscle, brain, kidney cell nuclei; conditions: 1 mg/mouse tail vein every day
# Protocol: Five wild-type male mice and nine male SOD1-G93A mice of similar week-age were selected. Wild-type mice served as the blank control group, and SOD1-G93A mice were observed and recorded from the time of hind leg tremor when they became ill at week 14, and the onset time of each mouse was recorded. Administering to mice 14 days after the onset of the disease. All mice were randomly divided into a vehicle group and a plasminogen administration group according to the onset of the disease: 5 mice in the vehicle group, which were injected with 0.1 ml of vehicle (sodium citrate buffer)/mouse by tail vein every day; 4 mice in the plasminogen administration group, which were injected with 1 mg of plasminogen/0.1 ml of vehicle/mouse by tail vein every day. The vehicle and plasminogen were administered continuously under SPF environment, and the samples were collected at the near-death stage. The longest administration was 61 days. The gluteal muscle tissue collected was fixed in formalin fixative solution. The fixed tissues were dehydrated with gradient alcohol and transparentized with xylene before being embedded in paraffin. The thickness of tissue sections was 3 μm, and the sections were dewaxed and rehydrated and then washed once. The sections were immersed in antigen retrieval working solution (0.01 M sodium citrate buffer) to perform microwave retrieval: preheating for 5 minutes, high heating for 2 minutes, and low heating for 15 minutes. […] The green fluorescence color development of the corresponding anti-plasminogen secondary antibody was performed according to the instructions of the XTSA520 IHC kit (Alpha X Biotech, AXT6202500), washing 3 times with PBS for 5 minutes each time. […] The red fluorescence color development of the corresponding anti-TDP-43 secondary antibody was performed according to the instructions of the XTSA620 IHC kit (Alpha X Biotech, AXT6502500), washing 3 times with PBS for 5 minutes each time. […]
# [4] = Plasminogen level (ELISA) and plasmin activity (enzyme substrate method) in brain homogenate of LPS-treated SOD1-G93A mice; assay type: in vivo, mouse; conditions: LPS 5 mg/kg intratracheal, 50 mg/kg tail vein single dose, 6 hours, vs vehicle group
# Protocol: Eight 22-week-age SOD1-G93A mice were randomly divided into two groups: a vehicle group and a plasminogen group, with 4 mice in each group. 2.5 mg/mL bacterial lipopolysaccharide (LPS) (Beijing Solebow Technology Co., Ltd., L8880) was administered to the mice in the vehicle group and the plasminogen group via intratracheal instillation, with a modeling dose of 5 mg/kg. Four C57 mice of the same age were selected as normal control mice. Administration began 3 days after LPS treatment. […] The mice were killed 6 hours after the single administration, and the brain tissues were obtained. After homogenization, the plasminogen level was detected by ELISA, and the plasmin activity was detected by enzyme substrate method.
# [5] = Brain tissue plasminogen level after tail vein injection in SOD1-G93A mice (ELISA)
# Protocol: Twenty-seven 10-15 week-age B6.Cg-Tg (SOD1-G93A) 1Gur/J (SOD1-G93A) mice (pedigree number: 004435) (referred to as SOD1-G93A mice) (breeding mice were purchased from Jackson Laboratory, USA) were randomly divided into three groups: three in the vehicle control group, 12 in the 6 mg/kg plasminogen group, and 12 in the 50 mg/kg plasminogen group. The mice in the vehicle control group were injected with vehicle at 5 ml/kg by tail vein, the mice in the 6 mg/kg plasminogen group were injected with plasminogen (1.2 mg/ml) at 6 mg/kg body weight by tail vein, and the mice in the 50 mg/kg plasminogen group were injected with plasminogen (10 mg/ml) at 6 mg/kg body weight by tail vein.
# Brain tissue was obtained from the mice sacrificed in Example 11, homogenizing and detecting according to the instructions of Human Plasminogen ELISA Kit (manufacturer: AssayMax, catalog number: EP1200-1). The human plasminogen working standard in the kit was used as the internal standard to calibrate the concentration of each sample. The calibrated concentration was divided by the total protein concentration to calculate the amount of plasminogen per unit of total protein in each sample and perform statistical analysis.
# [6] = Blood plasminogen level in MPTP Parkinson's model mice (ELISA); assay type: in vivo, mouse; conditions: 50 mg/kg tail vein
# Protocol: Eighteen 6-week-age male C57BL/6J mice were injected intraperitoneally with 1-methyl-4-phenyl-1,2,3,6-tetrahydropyridine (MPTP) solution at a dose of 35 mg/kg/mouse for 5 consecutive days to establish a Parkinson's model [7]. […] The mice were randomly divided into two groups according to their body weight: 6 mice in vehicle group, 12 mice in plasminogen group; and administration was begun to record as day 1. The mice in the plasminogen group were injected with 50 mg/kg body weight of plasminogen solution by tail vein, and the mice in the vehicle group were injected with 5 mL/kg body weight of vehicle solution (10 mM citric acid-sodium citrate solution, pH 7.4) by tail vein. Three mice in the vehicle group were killed respectively 2 and 24 hours after administration, and their blood was collected. Three mice in the plasminogen group were killed 2, 6, 12, and 24 hours after administration, and their blood was collected. After the blood was centrifuged (3500 rpm, 10 min, 4° C.), the supernatant was taken to detect according to the instructions of Human Plasminogen ELISA Kit (manufacturer: AssayMax, catalog number: EP1200-1). The concentration of each sample was calibrated by using human plasminogen working standard as the internal standard. […]
# [7] = test system: TDP-43; test: TDP-43 in spinal cord tissue of SOD1-G93A mice after plasminogen (Western blot); assay type: in vivo; conditions: 50 mg/kg tail vein, 24 hours after administration, vs vehicle group, P<0.05
# Protocol: Six SOD1-G93A mice aged 10-15 weeks were randomly divided into two groups: 3 mice in vehicle control group, and 3 mice in plasminogen group. The vehicle control group mice were injected with the vehicle at 5 ml/kg by tail vein, and the plasminogen group mice were injected with plasminogen (10 mg/ml) at 50 mg/kg body weight by tail vein. The mice were killed 24 hours after administration, and the spinal cords were obtained. After homogenization, TDP-43 was detected by western blot.
# [8] = Spinal cord tissue plasminogen level after tail vein injection in FAD mice (ELISA)
# Protocol: Twenty-seven 16-week-age B6SJL-Tg (APPSwFlLon, PSEN1*M146L* L286V) 6799Vas Mmjax (Stock Number: 034840) (FAD mice for short) (breeding mice were purchased from Jackson Laboratory, USA) were randomly divided into three groups: three mice in vehicle control group, 12 mice in 6 mg/kg plasminogen group, and 12 mice in 50 mg/kg plasminogen group. The mice in the vehicle control group were injected with vehicle at 5 ml/kg by tail vein, the mice in the 6 mg/kg plasminogen group were injected with plasminogen (1.2 mg/ml) at 6 mg/kg body weight by tail vein, and the mice in the 50 mg/kg plasminogen group were injected with plasminogen (10 mg/ml) at 6 mg/kg body weight by tail vein. […] Three mice in the 6 mg/kg plasminogen group and three mice in the 50 mg/kg plasminogen group were killed 2, 6, 12 and 24 hours after administration, and their blood was collected.
# Spinal cord tissue was obtained from the mice sacrificed in Example 21, homogenizing and detecting according to the instructions of Human Plasminogen ELISA Kit (manufacturer: AssayMax, catalog number: EP1200-1). The concentration of each sample was calibrated by using human plasminogen working standard as the internal standard. The calibrated concentration was divided by the total protein concentration to calculate the amount of plasminogen per unit of total protein in each sample and perform statistical analysis.
# TDP-43 (Mus musculus, UniProt Q921F2), sequence (Q921F2 whole entry): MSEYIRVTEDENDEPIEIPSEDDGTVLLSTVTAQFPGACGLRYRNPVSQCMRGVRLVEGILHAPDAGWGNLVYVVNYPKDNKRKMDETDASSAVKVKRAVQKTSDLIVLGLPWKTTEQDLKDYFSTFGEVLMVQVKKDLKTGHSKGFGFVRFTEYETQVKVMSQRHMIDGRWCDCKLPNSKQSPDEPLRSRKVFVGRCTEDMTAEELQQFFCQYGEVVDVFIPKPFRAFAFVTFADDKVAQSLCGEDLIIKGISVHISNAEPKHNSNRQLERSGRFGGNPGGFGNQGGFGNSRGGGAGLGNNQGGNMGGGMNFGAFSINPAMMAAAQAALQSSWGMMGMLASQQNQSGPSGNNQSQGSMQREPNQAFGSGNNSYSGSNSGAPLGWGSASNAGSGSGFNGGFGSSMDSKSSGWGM
molecule,measurement,setting,value
B1,"plasma plasminogen level, 50 mg/kg group compared with 6 mg/kg group",[1]; tail vein,significantly higher
same,time within which plasminogen is almost completely metabolized (plasma),[1]; tail vein 50 mg/kg and 6 mg/kg,12 to 24 h
same,plasma plasminogen level,[1]; tail vein injection of 6 mg/kg,increase significantly
same,plasma plasminogen level,[1]; tail vein injection of 50 mg/kg,increase significantly
same,level of human plasminogen in the cytoplasm,[2],significantly higher
same,level of human plasminogen in the nucleus,[2],significantly higher
same,co-localization of plasminogen with TDP-43 in muscle tissue (cytoplasm and nucleus),[3],co-localizes with TDP-43
same,subcellular presence of plasminogen in muscle tissue,[3],present in the cytoplasm (as indicated by Δ) and in the nucleus; also recorded: present in the cytoplasm (as indicated by Δ) and the nucleus
same,positive staining of plasminogen in muscle tissue,"[3]; up to 61 days, vs vehicle group",significantly more
same,plasmin activity in brain tissue homogenate,[4],significantly higher
same,plasminogen level in brain tissue homogenate,[4],significantly higher
same,"plasminogen level in brain tissue, 50 mg/kg group compared with 6 mg/kg group","[5]; SOD1-G93A mice, tail vein",significantly higher
same,time within which plasminogen is almost completely metabolized (brain tissue),"[5]; SOD1-G93A mice, tail vein 50 mg/kg and 6 mg/kg",12 to 24 h
same,plasminogen level in brain tissue,"[5]; SOD1-G93A mice, tail vein injection of 6 mg/kg",increase significantly
same,plasminogen level in brain tissue,"[5]; SOD1-G93A mice, tail vein injection of 50 mg/kg",increase significantly
same,ratio of brain tissue plasminogen level to blood plasminogen level,"[5]; mouse, in vivo",3.47% and 4.94% and 6.79%
same,time within which plasminogen is almost completely metabolized (blood),[6],12 to 24 h
same,plasminogen level in the blood,[6]; vs vehicle group,significantly higher
same,amount of low molecular weight TDP-43 in spinal cord tissue,[7],significantly lower
same,ratio of plasminogen in spinal cord tissue to plasminogen in blood,"[8]; 6 mg/kg plasminogen group, 2 hours",0.93%
same,ratio of plasminogen in spinal cord tissue to plasminogen in blood,"[8]; 6 mg/kg plasminogen group, 6 hours",1.62%
same,ratio of plasminogen in spinal cord tissue to plasminogen in blood,"[8]; 50 mg/kg plasminogen group, 2 hours",0.33%
same,ratio of plasminogen in spinal cord tissue to plasminogen in blood,"[8]; 50 mg/kg plasminogen group, 6 hours",0.40%
same,ratio of plasminogen in spinal cord tissue to plasminogen in blood,"[8]; 50 mg/kg plasminogen group, 12 hours",1.56%
same,"plasminogen level in spinal cord tissue, 50 mg/kg group compared with 6 mg/kg group",[8]; tail vein,significantly higher
same,time within which plasminogen is almost completely metabolized (spinal cord tissue),[8]; tail vein 50 mg/kg and 6 mg/kg,12 to 24 h
same,plasminogen level in spinal cord tissue,"[8]; tail vein injection of 6 mg/kg, 6 mg/kg",increases significantly
same,plasminogen level in spinal cord tissue,"[8]; tail vein injection of 50 mg/kg, 50 mg/kg",increases significantly
